This is an account of results in US20180371091A1 (JOUNCE THERAPEUTICS, published 2018).

B1: human ICOS-hFc (homodimeric, bivalent) (Fc fusion)
chain: EINGSANYEMFIFHNGGVQILCKYPDIVQQFKMQLLKGGQILCDLTKTKGSGNTVSIKSLKFCHSQLSNNSVSFFLYNLDHSHANYYFCNLSIFDPPPFKVTLTGGYLHIYESQLCCQLKF
notes: also called hICOS-Fc; hICOS-hFc; not shown: human IgG1 Fc (IgG1 backbone)

In one experiment the target is T1, hICOSL-mG2a (human; mouse, UniProt O75144 19-256, limits assumed).
T1 construct: also called hICOSL-mG2a Fc; not shown: mouse IgG2a Fc
T1 sequence (looked up): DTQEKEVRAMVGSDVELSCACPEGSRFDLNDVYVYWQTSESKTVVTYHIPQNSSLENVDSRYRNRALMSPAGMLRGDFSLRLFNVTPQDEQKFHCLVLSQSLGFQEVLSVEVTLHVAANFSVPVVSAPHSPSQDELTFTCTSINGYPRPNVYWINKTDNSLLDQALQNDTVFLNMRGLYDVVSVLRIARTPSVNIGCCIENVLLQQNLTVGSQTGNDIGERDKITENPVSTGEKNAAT
In words: BLI, bivalent binding to homodimeric ICOS-Fc. (Biolayer interferometry detects binding as a change in optical thickness at a sensor tip.)

Experiment [1] deals with T2, human ICOS (full length, on cells) (human, UniProt Q9Y6W8 21-199).
T2 construct: also called CHO-hICOS; human ICOS+ CHO cells
T2 sequence: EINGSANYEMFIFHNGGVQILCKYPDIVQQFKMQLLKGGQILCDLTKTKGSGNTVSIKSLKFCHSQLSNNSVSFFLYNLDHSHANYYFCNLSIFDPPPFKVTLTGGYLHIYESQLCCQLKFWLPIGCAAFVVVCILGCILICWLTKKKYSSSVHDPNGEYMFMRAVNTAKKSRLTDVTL
In words: cell-based ELISA on fixed, permeabilised CHO cells expressing human ICOS, chemiluminescence (RLU). Here is the method: Chinese Hamster ovary (CHO) cells stably transfected with ICOS overexpressing plasmid (CHO-ICOS) or control plasmid (CHO-vector) were used to screen positive clones from the peptide ELISA assay using established protocols. Briefly, cells grown in 96 well plates were fixed and permeabilized using 10% formalin with 0.1% Triton X-100. Following blocking, cells were incubated with primary antibody, followed by HRP-conjugated anti-mouse antibody. Detection was carried out using chemiluminescence substrate. Commercial anti-ICOS antibody, SP98 (Spring Biosciences) was used as a positive control and mouse IgG1 was used as a negative control for the assay.
On the technique in general: ELISA stands for enzyme-linked immunosorbent assay.

In experiment [2] the target is T3, mouse ICOS-hFc (homodimeric, bivalent) (mouse; human, UniProt Q9WVS0 21-142).
T3 construct: also called mICOS-hFc; mouse ICOS-Fc; not shown: human IgG1 Fc (IgG1 backbone)
T3 sequence: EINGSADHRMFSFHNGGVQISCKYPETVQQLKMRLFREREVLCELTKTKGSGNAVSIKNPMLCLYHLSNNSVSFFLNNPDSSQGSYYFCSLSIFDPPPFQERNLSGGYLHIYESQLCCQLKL
Nature of the experiment: BLI. As to the method:
(§1) Cross-reactivity measurements were conducted using BLI technology with antibody panels being screened for binding to human, mouse, and cynomolgus ICOS-Fc fusions (homodimeric, bivalent forms).

Experiment [3] addresses T4, mouse ICOS (full length, on cells) (mouse, UniProt Q9WVS0 21-200).
T4 construct: also called CHO-mICOS; mouse ICOS+ CHO cells
T4 sequence: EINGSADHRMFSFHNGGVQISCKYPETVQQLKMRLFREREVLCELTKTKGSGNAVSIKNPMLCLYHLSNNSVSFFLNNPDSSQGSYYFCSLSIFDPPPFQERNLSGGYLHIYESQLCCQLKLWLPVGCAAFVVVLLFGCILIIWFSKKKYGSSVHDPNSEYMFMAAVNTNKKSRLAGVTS
In words: flow cytometry on ICOS+ CHO cells. The text has this:
To assess specificity, binding to human ICOS+ CHO cells and mouse ICOS+ CHO cells was individually analyzed by flow cytometry. As a control to screen out pan-reactive antibodies, staining on CHO cells lacking ICOS receptor expression was also examined. All of the selected antibodies bound to human and mouse ICOS+ CHO cells, and not to CHO cells lacking ICOS expression.
A general note: Flow cytometry measures light scatter and fluorescence of single cells or particles in a stream.

Experiment [4] has as its target B1. In words: BLI, bivalent binding to homodimeric ICOS-Fc. As to the method:
as §1

Experiment [5] deals with T5, cynomolgus ICOS-Fc (homodimeric, bivalent) (cynomolgus monkey, UniProt Q9Y6W8 21-140 (human entry)).
T5 construct: also called cynoICOS-Fc; cyno ICOS-Fc; not shown: human IgG1 Fc (IgG1 backbone)
T5 chain: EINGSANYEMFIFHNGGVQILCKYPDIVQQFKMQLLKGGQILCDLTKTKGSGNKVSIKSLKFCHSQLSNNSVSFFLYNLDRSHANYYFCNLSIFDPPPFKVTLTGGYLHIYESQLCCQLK
Nature of the experiment: BLI, bivalent binding to homodimeric ICOS-Fc. Here is the method:
as §1

Experiment [6] has as its target T6, human CD28 Fc fusion (dimeric) (human, UniProt P10747 19-152).
T6 construct: not shown: Fc part not described
In words: binding to dimeric Fc fusions of CD28 family members. As to the method: (§2) To further assess the specificity of the anti-ICOS antibodies, the antibodies were screened for binding to additional members of the CD28 protein family (CD28, BTLA, PD-1 and CTLA-4). […] Specifically, binding to Fc fusions (of CD28, BTLA, PD-1 and CTLA-4) in dimeric forms was evaluated, and no binding was observed. For a subset of the CD28 family members, mouse or human protein was over-expressed on the surface of HEK293 and CHOK1 cells. No binding of antibody above background relative to untransduced parental cells was observed.

The target in experiment [7] is T7, mouse CD28 Fc fusion (dimeric) (mouse, UniProt P31041 20-150).
T7 construct: not shown: Fc part not described
T7 sequence (looked up): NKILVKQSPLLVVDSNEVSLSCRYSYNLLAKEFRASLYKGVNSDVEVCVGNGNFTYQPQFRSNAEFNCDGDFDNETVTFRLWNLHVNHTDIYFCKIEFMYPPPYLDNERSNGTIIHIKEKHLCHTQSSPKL
The experiment is described as above. Here is the method: as §2

Experiment [8] has as its target T8, human BTLA Fc fusion (dimeric) (human, UniProt Q7Z6A9 31-157).
T8 construct: not shown: Fc part not described
T8 sequence (looked up): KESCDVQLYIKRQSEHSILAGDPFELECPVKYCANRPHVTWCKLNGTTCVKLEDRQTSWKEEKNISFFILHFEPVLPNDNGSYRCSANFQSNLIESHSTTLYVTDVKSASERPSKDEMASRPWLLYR
Described as above. Here is the method:
as §2

Experiment [9] addresses T9, mouse BTLA Fc fusion (dimeric) (mouse, UniProt Q7TSA3 30-183).
T9 construct: not shown: Fc part not described
T9 sequence (looked up): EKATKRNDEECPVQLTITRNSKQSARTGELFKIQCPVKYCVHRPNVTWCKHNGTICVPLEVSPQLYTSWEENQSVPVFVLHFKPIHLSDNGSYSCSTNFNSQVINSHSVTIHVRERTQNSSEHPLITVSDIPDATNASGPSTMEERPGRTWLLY
The experiment is described as above. Here is the method:
as §2

The target of experiment [10] is T10, human PD-1 Fc fusion (dimeric) (human, UniProt Q15116 25-167).
T10 construct: not shown: Fc part not described
The experiment is described as above. As to the method:
as §2

Experiment [11] has as its target T11, mouse PD-1 Fc fusion (dimeric) (mouse, UniProt Q02242 25-167).
T11 construct: not shown: Fc part not described
T11 sequence (looked up): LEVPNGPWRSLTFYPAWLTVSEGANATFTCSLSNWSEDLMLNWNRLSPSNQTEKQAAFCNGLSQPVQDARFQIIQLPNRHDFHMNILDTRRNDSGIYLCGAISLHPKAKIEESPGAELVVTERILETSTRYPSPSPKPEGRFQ
Described as above. As to the method: as §2

In experiment [12] the target is T12, human CTLA-4 Fc fusion (dimeric) (human, UniProt P16410 37-162).
T12 construct: not shown: Fc part not described
T12 sequence (looked up): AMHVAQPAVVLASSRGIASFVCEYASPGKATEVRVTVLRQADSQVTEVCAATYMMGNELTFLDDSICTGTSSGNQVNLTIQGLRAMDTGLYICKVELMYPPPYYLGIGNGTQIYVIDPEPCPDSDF
The description is as above. As to the method: as §2

The target of experiment [13] is T13, mouse CTLA-4 Fc fusion (dimeric) (mouse, UniProt P09793 36-162).
T13 construct: not shown: Fc part not described
Described as above. As to the method: as §2

The target of experiment [14] is T14, monovalent, heterodimeric human ICOS-Fc (human).
T14 construct: Make-up of the heterodimer is not described; also called Monomeric hICOS; monomeric form of human ICOS; not shown: The human IgG1 Fc fused to ICOS, and the partner Fc chain of the heterodimer
T14 chain: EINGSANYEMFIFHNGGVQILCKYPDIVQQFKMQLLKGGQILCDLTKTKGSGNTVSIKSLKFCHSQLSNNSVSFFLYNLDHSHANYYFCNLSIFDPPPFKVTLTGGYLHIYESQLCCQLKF
Nature of the experiment: BLI (Octet RED96), IgG vs monovalent heterodimeric ICOS-Fc. As to the method: (§3) Affinity measurements were conducted using Bio-Layer Interferometry (BLI) technology (ForteBio Octet® RED96). The monovalent affinities were generated with IgG versions of the antibodies with monovalent, heterodimeric forms of the ICOS receptor. The avid affinities were generated using full-length IgGs against homodimeric forms of the ICOS receptor.

The target in experiment [15] is B1. In words: BLI (Octet RED96), full-length IgG vs homodimeric ICOS-Fc (avid). Here is the method:
as §3

The target in experiment [16] is B1. Nature of the experiment: BLI (Octet RED96), full-length IgG vs homodimeric ICOS-Fc (avid); bivalent (homodimeric) hICOS, avid; not monomeric hICOS. As to the method: as §3

T6 sequence (P10747 19-152): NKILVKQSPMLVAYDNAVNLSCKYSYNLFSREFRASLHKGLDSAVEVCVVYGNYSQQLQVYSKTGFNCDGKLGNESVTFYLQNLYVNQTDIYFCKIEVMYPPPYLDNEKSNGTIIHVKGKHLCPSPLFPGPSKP
T10 sequence (Q15116 25-167): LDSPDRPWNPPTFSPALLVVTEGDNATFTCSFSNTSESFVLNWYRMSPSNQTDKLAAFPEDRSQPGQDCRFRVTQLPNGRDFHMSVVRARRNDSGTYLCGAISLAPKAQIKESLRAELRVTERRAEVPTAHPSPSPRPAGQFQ

In the experiment with hICOSL-mG2a, B1 showed a Kd of 0.362 nM, an off-rate (koff) of 0.000341 s⁻¹ and a kon of 941000 M⁻¹ s⁻¹.

B2: 2M19 (antibody, V domains shown)
VH: EVQLQQSGAELVRSGASVKLSCTTSAFNIIDYYMHWVIQRPEQGLEWIAWIDPENGDPEYAPKFQDKATMTTDTSSNTAYLQLSSLTSEDTAVYYCTAWRGFAYWGQGTLVTVSA
VL: DVVMTQTPLSLPVSLGDQASISCRSSQSLVHSNGNTYLHWYLQKPGQSPKLLIYKVSNRFSGVPDRFSGSGSGTDFTLKISRVEAEDLGVYFCSQSIHVPPTFGGGTKLEIK
notes: Purified mouse monoclonal from a hybridoma; also called anti-ICOS mAb 2M19
On to B2, for which the binding result in experiment [1] is on record as “binds”.

B3: 2M13 (antibody, V domains shown)
VH: EVQLQQSGAELVRPGAVVKLSCKASGFDIKDYYMHWVQQRPEQGLEWIGWIDPENGNAVYDPQFQGKASITADTSSNTAYLQLSSLTSEDTAVYYCASDYYGSKGYLDVWGAGTTVTVSS
VL: QIVLTQSPTIMSASPGEKVTITCSASSSVSYMHWFQQKPGTSPKLWIYSTSNLASGVPARFGGSRSGTSYSLTISRMEAEDAATYYCQQRSSYPFTFGSGTKLEIK
notes: Purified mouse monoclonal from a hybridoma; also called anti-ICOS antibody (2M13); anti-ICOS mAb 2M13
In the case of B3, in experiment [1], the binding result is “binds”.

B4: 35A9 (antibody, V domains shown)
VH: EVQLVESGGGLVKPGGSLKLSCAASGFTFSDYWMDWVRQAPGKGLEWVGNIDEDGSIAEYSPFVKGRFTISRDNVKNTLYLQMNSVKSEDTATYYCSRWGRFAFDSWGQGTLVTVSS
VL: DIVMTQSPSSLAVSAGDRVTINCKSSQSLLSGSFNYLTWYQQKTGQAPKLLIFYASTRHTGVPDRFMGSGSGTDFTLTINSFQTEDLGDYYCHHHYNAPPTFGPGTKLELR
notes: Armenian hamster monoclonal tested as IgG; also called hamster anti-ICOS 35A9
On to B4, for which the binding result is given as “binds” in experiment [2]; “binds” in experiment [3]; “no binding” in experiment [6]; “no binding” in experiment [7]; “no binding” in experiment [8]; “no binding” in experiment [9]. For the same molecule, the binding result in [10], in [11], in experiment [12] and in experiment [13] was “no binding” in each case. Besides, the Kd is < 0.001 nM in [4], < 0.001 nM in [5], 2.45 nM in [14] and < 0.001 nM in experiment [16]. For the same molecule, the koff in experiment [4] was < 1e-07 s⁻¹; in experiment [5], < 1e-07 s⁻¹; in experiment [14], 0.000438 s⁻¹; in [15], < 1e-07 s⁻¹. Besides, the on-rate (kon) in experiment [4] amounted to 1.01e+06 M⁻¹ s⁻¹; in [5], 740000 M⁻¹ s⁻¹; in [14] it was 178000 M⁻¹ s⁻¹; in experiment [15], 625000 M⁻¹ s⁻¹.

For orientation: koff means the rate constant with which the complex falls apart. Read a low koff as slow dissociation. As usually defined, the kon is the rate constant with which the complex forms.
